These results are taken from patent publication US20170173114A1, “METHODS AND COMPOSITIONS FOR INDUCTION OF UCP1 EXPRESSION” (Joslin Diabetes Center, Inc., priority 2014, published 2017).

One assay has as its system WT-1 brown preadipocytes. Kind of assay: Seahorse Bioanalyzer cellular respiration in WT-1 brown preadipocytes. Format: cell-based, murine. An excerpt: The Seahorse XF24 (Seahorse Bioscience, http://www.seahorsebio.com/) was utilized for respirometry to measure oxygen consumption rates (OCR; indicating oxidative phosphorylation) and extracellular acidification rates (ECAR; indicating extracellular pH) in mature brown adipocytes. The cell plates and assay cartridges for the Seahorse XF24 have four ports allowing for drug delivery to individual wells during measurement of the metabolic parameters. For a typical bioenergetic profile, cells are first treated with oligomycin to block ATP synthase, FCCP as an uncoupler and Rotenone to block Complex 1 of the ETC (all from Sigma). Example 2 provides additional details regarding the general method. Data provided in the Figures (e.g., FIG. 27) based on the Seahorse Bioanalyzer includes a bottom horizontal line which represents the baseline of the mechanics of the machine and is not related to the experiment.
A profile of cellular respiration was developed by utilizing well-characterized mitochondrial toxins, as described in FIG. 5B. First, basal respiration was measured, followed by injection of oligomycin (an inhibitor of ATP synthase which allows measurement of ATP turnover). Then, the uncoupler FCCP (carbonilcyanide p-triflouromethoxyphenylhydrazone) was injected to measure respiratory capacity, followed by the complex 1 inhibitor rotenone (which prevents electron transfer activity and leaves only non-mitochondrial activity to be measured).
Similar results were observed when WT-1 brown preadipocytes were treated with 200 ng/mL of FGF6 for 24 hrs using the Seahorse Bioanalyzer.
The role of PGs in regulating mitochondrial function and cellular glucose uptake was also assessed. WT-1 brown preadipocytes were treated with PGE2, PGI2 and FGF6 in growth media (DMEM+10% FBS) for two days. Similar to treatment with FGF6, treatment with PGE2 and PGI2 enhanced oxygen consumption and glucose uptake, as described in FIGS. 27A and 27B, respectively.

A short description of assay [1]: Glucose tolerance test in Chow or high fat diet mice. Type of assay: in vivo, C57BL6 mice. Conditions: Chow or HFD mice, i.p. glucose 2 mg/g after 16 h fast; particularly in obese HFD mice. As for the experimental part: C57BL6 mice were fed either the Chow diet or a high fat diet (HFD) and were fasted overnight (16 h) prior to intraperitoneal injection of 2 mg/g body weight of glucose using a 20% (w/v) solution.

The subject of the next assay is mature brown adipocytes. The experiment in a line: Glucose uptake in mature brown adipocytes. Type of assay: cell-based. The settings on record: vs control. As for the experimental part: The following glucose uptake assay was used to determine whether FGF6 could impact cellular glucose uptake. Specifically, glucose uptake was monitored in WT-1 brown preadipocytes and 3T3-F442A white preadipocytes in the presence or absence of FGF6. After serum starvation in DMEM/H medium containing 1% of BSA for 2-3 h, cells were washed with HEPES buffer and then incubated with or without 100 nM insulin for 30 min in DMEM/H medium containing 1% of BSA. Glucose transport was determined by the addition of 2-deoxy-[3H]glucose (0.1 mM, 0.5 μCi/mL; PerkinElmer Life and Analytical Science, Waltham, Mass.). […] Cells were then lysed in 0.1% SDS, and glucose uptake was assessed in 4 mL of scintillant using Beckman LS6500 scintillation counter (Beckman Coulter, Indianapolis Ind.). Nonspecific 2-deoxy-[3H]glucose uptake was measured in the presence of cytochalasin B (20 μM) and was subtracted from the total uptake to get specific glucose uptake. Results were expressed as the mean±s.e.m. of the indicated number of experiments. The protein content was determined by the Bradford method.
To assess mitochondrial respiration, a Seahorse Extracellular Flux Analyzer (Seahorse Bioscience Inc., North Billerica, Mass.) was used to quantify oxygen consumption rates (OCR) of differentiated human brown adipocytes. […] After adipogenic induction for 8 days, OCR was analyzed. […]

Assay [2] deals with UCP1. Kind of assay: UCP1 mRNA expression in C2C12 myogenic progenitors. Type of assay: cell-based. The settings on record: three days.
Assay [3] concerns UCP1. The experiment in a line: Marker mRNA expression and culture media acidification in mature brown adipocytes. Type of assay: cell-based, murine. Conditions: seven days. As for the experimental part: The effect of FGF6 on murine mature brown adipocytes was also examined. Mature brown adipocytes were treated with FGF6 in growth media (DMEM+10% FBS), a vehicle control (buffer) (“buffer” referred to in FIG. 22), or BMP7 for seven days. Following the treatment, cells were examined for the color of the culture media in combination with oil Red O staining, expression of adipogenic markers, and expression of brown fat markers.
mRNA expression of UCP1, PPARγ, PTGS2, NDST3 and SIRT1 was measured in the mature adipocytes exposed to either the control, BMP7, or FGF6.

The subject of the next assay is preadipocytes. Kind of assay: Transmission electron microscopy of mitochondria in preadipocytes. Type of assay: cell-based. The settings on record: preadipocytes overexpressing FGF6 vs control. As for the experimental part: To determine if FGF6 treatment affects the overall health condition of mitochondria, mitochondrial attributes such as mitochondria biogenesis, mass, morphology and dynamics were measured. Mitochondrial mass was measured by a cell-permeable dye (MitoTracker Green FM) and by transmission electron microscopy (EM). MitoTracker Green FM accumulates in mitochondria in live cells irrespective of mitochondrial membrane potential. The intensity of fluorescence was visualized by microscopy and quantitated by flow cytometry. Mitochondrial morphology and ultra-structure (such as cristae and granules) was assessed by EM.

Entries after “also recorded” stand apart in the source; their conditions may differ.

B1: FGF6: fibroblast growth factor 6; recombinant human FGF from R&D Systems, or mouse FGF6 cDNA overexpressed by lentiviral vector (protein)
chain: KRQRRLYCNVGIGFHLQVLPDGRISGTHEENPYSLLEISTVERGVVSLFGVRSALFVAMNSKGRLYATPSFQEECKFRETLLPNNYNAYESDLYQGTYIALSKYGRVKRGSKVSPIMTVTHFLPRI
In the case of B1, the “cellular respiration (basal respiration, ATP turnover, proton leak, respiratory capacity)” value with WT-1 brown preadipocytes (FGF6 overexpressing WT-1 vs control cells) was “increase in all tested aspects of cellular respiration”. The uncoupled respiration entry in the assay with WT-1 brown preadipocytes (WT-1 treated with 200 ng/mL for 24 hrs) was “elevation in uncoupled respiration”. The “cellular respiration (basal respiration, ATP turnover, proton leak, respiratory capacity)” value with WT-1 brown preadipocytes (WT-1 treated with 200 ng/mL for 24 hrs vs control cells) is given as “coordinated increase in all aspects of cellular respiration”. Besides, the glucose tolerance entry in assay [1] is reported as “enhanced glucose tolerance; also recorded: improved glucose tolerance”. The “glucose uptake in mature brown adipocytes” value with mature brown adipocytes is listed as “enhanced”. For the same molecule, the “UCP1 mRNA expression in C2C12 myogenic progenitors” value in the assay with UCP1 [2] was “neither FGF6 nor FGF21 induced UCP1 mRNA expression; also recorded: no induction of UCP1”. The “acidification of cell culture media, mature brown adipocytes” value in the assay with UCP1 [3] is on record as “no acidification of cell culture media”. Also, in the assay on UCP1 [3] (vs buffer or BMP7), the “UCP1 mRNA expression in mature adipocytes” value was “does not induce”. In the assay on preadipocytes, the “number of mitochondria by transmission electron microscopy” value is on record as “fewer mitochondria” and the “shape of mitochondria by transmission electron microscopy” value was “longer shape”.
